# B1: Fab25: anti-hepsin antibody Fab that blocks hepsin activation of pro-MSP (antibody, V domains shown)
# VH: EVQLVESGGGLVQPGGSLRLSCAASGFNFSYSYMHWVRQAPGKGLEWVASIYSYYGSTYYADSVKGRFTISADTSKNTAYLQMNSLRAEDTAVYYCARSDSWSYKSGYTQKIYSKGLDYWGQGTLVTVSS
# VL: DIQMTQSPSSLSASVGDRVTITCRASQSVSSAVAWYQQKPGKAPKLLIYSASSKGVPSRFSGSRSGTDFTLTISSLQPEDFATYYCQQYYSSYYLLTFGQGTKVEIK
# Tests used:
# peritoneal macrophages = test: Peritoneal macrophage chemotaxis assay; assay type: cell-based, mouse; conditions: pre-treatment with inhibitor
# Experimental: Peritoneal macrophage chemotaxis and morphology change assay: Murine peritoneal resident macrophages were obtained from C57BL/6 mice by washing the peritoneal cavity with 15 ml per mouse of serum-free RPMI-1640 medium. Cells were washed and resuspended in RPMI-1640 medium containing 25 mM Hepes at a concentration of 1×10^6 cells·mL^−1. The macrophage chemotaxis assay was performed using a QCM chemotaxis assay kit with a pore size of 5 μm (Millipore). One hundred microliters of the peritoneal macrophage suspension (i.e. 10^5 cells) were added to the upper wells of the Chemotaxis cells. The bottom wells were filled with RPMI-1640 medium containing purified pro-MSP either alone or hepsin-treated at 37 C for 2 hours. The recombinant active form of human MSP (R&D Systems) was used as a positive control. After incubation at 37 C for 4 hours, the cells on the upper surface of the membrane were wiped off with a cotton swab and the migrated cells were detached using detachment buffer as per manufacturer's recommendations. Aliquots from different wells were incubated with a mixture of lysis buffer and CYPRO dye for 15 minutes. Migration was quantified by measuring the fluorescence using a microplate reader (Spectramax-M5, Molecular devices, Sunnyvale, Calif.) at an excitation wavelength of 480 nm and emission wavelength of 520 nm.
# [1] = target: T1, cell surface expressed hepsin in LnCap-34 cells (Homo sapiens, UniProt P05981); test: Pro-MSP activation by cell surface expressed hepsin in LnCap-34 cells; assay type: cell-based; conditions: 1 μM inhibitor, 15 minutes preincubation, 125I-pro-MSP 25 μg/ml, 3 hours, 37° C.
# T1 construct: expressed in transfected cells; host or cells: LnCaP-34 cells
# T1 sequence (P05981 whole entry): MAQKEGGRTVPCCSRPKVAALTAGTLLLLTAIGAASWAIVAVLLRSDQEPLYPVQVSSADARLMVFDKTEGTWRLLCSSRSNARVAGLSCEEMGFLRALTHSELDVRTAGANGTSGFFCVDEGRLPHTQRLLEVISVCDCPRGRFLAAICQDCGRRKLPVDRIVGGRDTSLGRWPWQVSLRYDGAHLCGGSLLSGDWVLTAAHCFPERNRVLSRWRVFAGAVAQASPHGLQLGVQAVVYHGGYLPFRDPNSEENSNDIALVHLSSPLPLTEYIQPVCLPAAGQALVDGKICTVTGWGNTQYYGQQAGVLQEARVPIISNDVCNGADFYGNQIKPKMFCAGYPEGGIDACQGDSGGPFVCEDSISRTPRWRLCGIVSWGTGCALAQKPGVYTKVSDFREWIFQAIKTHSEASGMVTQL
# Experimental: Confluent LnCap-34 cells cultured in 24-well plates were washed with serum-free RPMI-1640 medium and were incubated either alone or with different anti-hepsin inhibitors (1 μM of anti-hepsin antibody Fab25/1 μM of KD1/1 μM of Ac-KQLR-cmk (‘KLQR” disclosed as SEQ ID NO:10)) in serum-free RPMI-1640 medium for 15 minutes at 37° C. prior to addition of 125I-labeled pro-MSP (25 μg/ml). After incubation for 3 hours at 37° C., aliquots were removed and analyzed by SDS-PAGE (4-20% gradient gel) (Invitrogen, Carlsbad, Calif.) followed by exposure to X-ray films.
# bone marrow macrophages = test: Inhibition of nitric oxide (NO) synthesis in bone marrow macrophages; assay type: cell-based, mouse; conditions: pro-MSP 10 ng/ml mixed with hepsin 1 nM and Fab25 500 nM, 24 hours, LPS
# Experimental: Inhibition of NO synthesis by mature MSP: Bone marrow cells obtained from collected mouse femurs were pipetted to a single-cell suspension and then spun down. Red blood cells were lysed by incubation with erythrocyte lysis buffer for 5 minutes at room temperature. Cells were then suspended in macrophage differentiation medium (DMEM with glutamine containing 10% FBS, Pen/Strep and 50 ng/ml recombinant mCSF-1). Cells were then plated onto sterile 24-well non-tissue culture dishes. Medium was changed the next day and subsequently every 2 days. After 6 days in culture, the macrophages were mature and these mature cells were washed in serum-free DMEM and further incubated for 2 hours. Different reactions (total volume 300 μL) as indicated in the figure consisting of recombinant MSP (10 ng/ml), pro-MSP (10 ng/ml), hepsin (1 nM) and Fab25 (500 nM) were added to the respective wells and cultured for 24 hours at 37° C. in a tissue culture incubator. NO production was quantified using Griess reaction (Molecular Probes) according to manufacturer's recommendation.
molecule,measurement,setting,value
B1,effect of anti-hepsin inhibitor pre-treatment on migration of macrophages induced by hepsin-treated pro-MSP,peritoneal macrophages,marked reduction
same,blocking of pro-MSP proteolytic cleavage by cell surface hepsin,[1],effectively blocked
same,effect of anti-hepsin antibody on attenuation of NO production by hepsin-activated MSP,bone marrow macrophages,did not inhibit robust production of nitric oxide
same,effect of anti-hepsin antibody on attenuation of NO production by hepsin-activated MSP,bone marrow macrophages; listed as anti-hepsin antibody,completely inhibited

# Source: patent US8697386B2, “Methods and compositions for modulating hepsin activation of macrophage-stimulating protein” (Genentech, Inc., priority 2009, dated 2014)
